Patent US20210162028A1, “Methods for Inducing Intermittent Fasting and Modulating Autophagy” (The Hong Kong Polytechnic University, priority 2019, published 2021)

Columns and labels:
[1] = Half-life / therapeutic duration in circulation; parameters: species or system mice; settings: mouse, in vivo
Description: As used herein, the term “half-life” or “½-life” refers to the time that would be required for the concentration of an agent, e.g., a fusion protein or arginine depleting agent as described herein, to fall by half in vitro or in vivo, for example, after injection into a mammal. In certain instances, the concentration of plasma arginine, after injection, is used herein as a proxy indicator of the half-life of the agent. In such instances, the term “therapeutic duration” is used to refer to the length of time a specified dosage of the arginine depleting agent is able to maintain the plasma concentration of arginine below a specified threshold concentration that a desired therapeutic effect is observed. In certain embodiments, the threshold concentration of plasma arginine is below 50 μM, below 40 μM, below 30 μM, below 20 μM, below 10 μM, below 5 μM, below 3 μM, or at a concentration below the detection limit of conventional analytical instrumentation.
Importantly, the present invention used a new ABD fusion approach to join an ABD and an arginase together so that arginase activity can be retained. Stable and soluble arginase-ABD fusion molecules that can bind to FcRn in a pH-dependent manner were successfully generated, allowing for efficient endosomal recycling. […] Taken together, a variety of different approaches are available for fine-tuning the pharmacokinetic properties of arginases, ensuring appropriate residence time in circulation for different disease conditions. Another key issue in the development of any therapeutic protein is to minimize immunogenicity to avoid adverse effects. Thus, the observed low immunogenicity of human arginase and the successful deimmunization of ABD (e.g. ABD094), which was also used in the present disclosure as gene fusion partner to extend the in vivo half-life, are important.

[2] = Daily food intake / 7-day intermittent fasting cycle in mice; assay type: in vivo, mouse
Description: One of the most noticeable effects of intermittent fasting is reduction of bodyweight. […] Specifically, C57BL/6J, which is the most commonly used mouse strain for polygenic obesity model, was used in the study. It is well-reported that C57BL/6J male mice feeding on a high-fat diet will have prominent weight gain, become obese and develop hyperinsulinemia, hyperglycemia, impaired glucose tolerance and insulin resistance [Gallou-Kabani et al., 2007, Obesity 15(8):1996-2005]. Obesity was induced in C57BL/6J male mice via feeding ad libitum a high-fat diet containing 60 kcal % fat (HFD; Research Diets, D12492) for 12-14 weeks starting from 5-week old. These mice are referred as diet-induced obese (DIO) mice. DIO mice were stratified according to bodyweight into 2 groups. […] Both groups of mice continued to feed ad libitum on the HFD throughout the treatment period. One group of age-matched C57BL/6J male mice feeding ad libitum on an ordinary rodent chow diet (CD; LabDiet, 50IF/6F) and injected with vehicle served as the lean control [CD (vehicle) group]. Food intake and bodyweight of mice were measured daily. […] DIO mice were injected with rhArg on Day 0, which was Day 7 of the previous cycle. Similarly, Day 7 of the cycle shown in FIG. 1B was Day 0 of the next cycle. […] Bodyweight gain is one of the biomarkers related to aging.
C57BL/6J male mice were fed a high-fat diet from 5-week old for 12 weeks. They were then stratified into 3 groups according to their bodyweight and individually caged: (i) one group of mice received i.p. injection of 600 U N-ABD094-rhArg (SEQ ID NO: 50) once a week [HFD (rhArg) group] and was fed ad libitum the HFD for 5 weeks; (ii) one group of mice received i.p. injection of saline once a week, and was fed a predetermined amount of HFD on each day to artificially create a 7-day intermittent fasting cycle that mimics the pattern of food intake of mice administered once a week with rhArg [HFD (artificial IF) group)]; (iii) one group of mice was injected with saline once a week and was fed ad libitum the HFD [HFD (vehicle) group].

[3] = Bodyweight of treated mice; assay type: in vivo, mouse
[4] = Fat pad and organ mass at end of treatment; assay type: in vivo, mouse; settings: DIO C57BL/6J male mice on HFD; about 250 U once a week, 8 weeks
[5] = Insulin tolerance test (ITT); assay type: in vivo, mouse; settings: DIO C57BL/6J male mice on HFD; about 250 U once a week; at 7 week
Description: In terms of reversing insulin resistance on pre-existing obese mice, insulin tolerance test (ITT) was employed (FIG. 59).
In terms of reversing insulin resistance on pre-existing obese mice, insulin tolerance test (ITT) was employed (FIG. 68A).

[6] = Glucose tolerance test (GTT); assay type: in vivo, mouse; settings: DIO C57BL/6J male mice on HFD; about 250 U once a week; at 6 week
[7] = DIO C57BL/6J male mouse on HFD, 50 U i.p. once a week, 2 weeks, n=1
[8] = DIO C57BL/6J male mice on HFD, about 250 U i.p. once a week, 8 weeks

B1: BAH: arginase-ABD fusion protein, SEQ ID NO: 76 (protein)
chain: MKPISIIGVPMDLGQTRRGPDMGPSAMRYAGVIERLERLHYDIEDLGDIPIGKAERLHEQGDSRLRNLKAVAEANEKLAAAVDQVVQRGRFPLVLGGDHSIAIGTLAGVAKHYERLGVIWYDAHGDVNTAETSPSGNIHGMPLAASLGFGHPALTQIGGYCPKIKPEHVVLIGVRSLDEGEKKFIREKGIKIYTMHEVDRLGMTRVMEETIAYLKERTDGVHLSLDLDGLDPSDAPGVGTPVIGGLTYRESHLAMEMLAEAQIITSAEFVEVNPILDERNKTASVAVALMGSLFGEKLMAQHDEAVDANSLAEAKVLANRELDKYGVSDYYKNLINNAKTVEGVKALIDEILAALPHHHHHH
modifications: BAH Fusion Protein, Synthesized in the Lab
Therapeutic duration (and half-life) [1]: surprisingly high therapeutic duration (and half-life)

B2: ADI-ABD: arginine deiminase fused with albumin binding domain (SEQ ID NO: 107) (protein)
chain: MHHHHHHDEAVDANSLAEAKVLANRELDKYGVSDYYKNLINNAKTVEGVKALIDEILAALPSGSNNNNNNGSGGSVFDSKFKGIHVYSEIGELESVLVHEPGREIDYITPARLDELLFSAILESHDARKEHKQFVAELKANDINVVELIDLVAETYDLASQEAKDKLIEEFLEDSEPVLSEEHKVVVRNFLKAKKTSRELVEIMMAGITKYDLGIEADHELIVDPMPNLYFTRDPFASVGNGVTIHYMRYKVRQRETLFSRFVFSNHPKLINTPWYYDPSLKLSIEGGDVFIYNNDTLVVGVSERTDLQTVTLLAKNIVANKECEFKRIVAINVPKWTNLMHLDTWLTMLDKDKFLYSPIANDVFKFWDYDLVNGGAEPQPVENGLPLEGLLQSIINKKPVLIPIAGEGASQMEIERETHFDGTNYLAIRPGVVIGYSRNEKTNAALEAAGIKVLPFHGNQLSLGMGNARCMSMPLSRKDVKW
modifications: ADI-ABD, Synthesized in the Lab
Time of minimum level of food intake in the cycle ([2]; DIO C57BL/6J male mice on HFD, i.p. once a week): after the first day
Pattern of food intake (intermittent fasting cycle) ([2]; DIO C57BL/6J male mouse on HFD, 5 U i.p. once a week, 2 weeks, n=1): induce a 7-day intermittent fasting cycle
Bodyweight reached under treatment ([3]; DIO C57BL/6J male mouse on HFD, 5 U i.p., first cycle, from 47 g in 2 days, n=1): about 44 g

B3: N-ABD094-rhArg-Co^2+: SEQ ID NO: 50 (cobalt substituted); Mn^2+ substituted with Co^2+ in the ABD-rhArg fusion protein (protein)
chain: MHHHHHHDEAVDANSLAEAKEAANAELDSYGVSDFYKRLIDKAKTVEGVEALKDAILAALPSGSNNNNNNGSGGMSAKSRTIGIIGAPFSKGQPRGGVEEGPTVLRKAGLLEKLKEQECDVKDYGDLPFADIPNDSPFQIVKNPRSVGKASEQLAGKVAEVKKNGRISLVLGGDHSLAIGSISGHARVHPDLGVIWVDAHTDINTPLTTTSGNLHGQPVSFLLKELKGKIPDVPGFSWVTPCISAKDIVYIGLRDVDPGEHYILKTLGIKYFSMTEVDRLGIGKVMEETLSYLLGRKKRPIHLSFDVDGLDPSFTPATGTPVVGGLTYREGLYITEEIYKTGLLSGLDIMEVNPSLGKTPEEVTRTVNTAVAITLACFGLAREGNHKPIDYLNPPK
modifications: Co2+ substituted for Mn2+; N-ABD094-rhArg, Synthesized in the Lab
notes: Mn^2+ substituted with Co^2+ in the ABD-rhArg fusion protein
Length of fasting period in the 7-day intermittent fasting cycle [2, 7]: 4 days
Pattern of food intake (intermittent fasting cycle) [2, 7]: induce a 7-day intermittent fasting cycle
Bodyweight reached under treatment ([3]; DIO C57BL/6J male mouse on HFD, 50 U i.p. once a week, from 45 g within 2 weeks, n=1): 32 g

B4: PEGylated His-rhArg: PEGylated His-tagged recombinant human arginase (SEQ ID NO: 101) (protein)
chain: MHHHHHHMSAKSRTIGIIGAPFSKGQPRGGVEEGPTVLRKAGLLEKLKEQECDVKDYGDLPFADIPNDSPFQIVKNPRSVGKASEQLAGKVAEVKKNGRISLVLGGDHSLAIGSISGHARVHPDLGVIWVDAHTDINTPLTTTSGNLHGQPVSFLLKELKGKIPDVPGFSWVTPCISAKDIVYIGLRDVDPGEHYILKTLGIKYFSMTEVDRLGIGKVMEETLSYLLGRKKRPIHLSFDVDGLDPSFTPATGTPVVGGLTYREGLYITEEIYKTGLLSGLDIMEVNPSLGKTPEEVTRTVNTAVAITLACFGLAREGNHKPIDYLNPPK
modifications: PEGylated; His-rhArg, Synthesized in Lab
Fat pad mass (perirenal, inguinal WAT, interscapular BAT) and liver mass [4]: dramatically reduced to a weight similar to that of the vehicle-treated lean control mice
Kidney and heart mass [4]: significantly reduced
Insulin sensitivity in ITT [5]: marked increase in insulin sensitivity
Glucose tolerance in GTT [6]: significantly improved glucose tolerance
Pattern of food intake (intermittent fasting cycles) [2, 8]: repetitive 7-day intermittent fasting cycles
Total food intake per week, less than HFD (vehicle) group [2, 8]: about 28%
Bodyweight reached under treatment ([3]; DIO C57BL/6J male mice on HFD, about 250 U i.p. once a week, from 50 g within 8 weeks): 30 g

B5: BHA: arginase-ABD fusion protein, SEQ ID NO: 75 (protein)
chain: MKPISIIGVPMDLGQTRRGPDMGPSAMRYAGVIERLERLHYDIEDLGDIPIGKAERLHEQGDSRLRNLKAVAEANEKLAAAVDQVVQRGRFPLVLGGDHSIAIGTLAGVAKHYERLGVIWYDAHGDVNTAETSPSGNIHGMPLAASLGFGHPALTQIGGYCPKIKPEHVVLIGVRSLDEGEKKFIREKGIKIYTMHEVDRLGMTRVMEETIAYLKERTDGVHLSLDLDGLDPSDAPGVGTPVIGGLTYRESHLAMEMLAEAQIITSAEFVEVNPILDERNKTASVAVALMGSLFGEKLMHHHHHHAQHDEAVDANSLAEAKVLANRELDKYGVSDYYKNLINNAKTVEGVKALIDEILAALP
modifications: BHA Fusion Protein, Synthesized in the Lab
Therapeutic duration (and half-life) [1]: surprisingly high therapeutic duration (and half-life)
